This assay concerns the target Flag-ACKR3-RlucII (human) (UniProt P25106). The following applies: scale: log EC50.

Chain of Flag-ACKR3-RlucII (human) (P25106 whole entry): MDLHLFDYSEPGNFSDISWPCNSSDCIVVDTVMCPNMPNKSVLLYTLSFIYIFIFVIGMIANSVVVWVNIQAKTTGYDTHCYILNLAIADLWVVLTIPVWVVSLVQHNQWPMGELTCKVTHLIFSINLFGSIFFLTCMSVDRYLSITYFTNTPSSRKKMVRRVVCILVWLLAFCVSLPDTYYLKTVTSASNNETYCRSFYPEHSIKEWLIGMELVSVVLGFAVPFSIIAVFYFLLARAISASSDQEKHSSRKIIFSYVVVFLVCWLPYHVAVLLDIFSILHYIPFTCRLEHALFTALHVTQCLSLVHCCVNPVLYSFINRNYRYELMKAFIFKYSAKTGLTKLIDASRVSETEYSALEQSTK

The substance “wild-type CXCL12 (CXCL12WT) (from UniProt P48061 22-93) (ligand)” registered a log EC50 of GFP10–β-arrestin 2 recruitment to ACKR3-RlucII (BRET) as a function of CXCL12WT, with 2 μM CID25 of -8.89 and a log EC50 of GFP10–β-arrestin 2 recruitment to ACKR3-RlucII (BRET) as a function of CXCL12WT, without CID25 of -8.87.

The values above are taken from PMC9278869.
